In the experiment the target is T1, Sec24d (lacking residues 1-266) (human, UniProt O94855 267-1032).
T1 sequence (looked up): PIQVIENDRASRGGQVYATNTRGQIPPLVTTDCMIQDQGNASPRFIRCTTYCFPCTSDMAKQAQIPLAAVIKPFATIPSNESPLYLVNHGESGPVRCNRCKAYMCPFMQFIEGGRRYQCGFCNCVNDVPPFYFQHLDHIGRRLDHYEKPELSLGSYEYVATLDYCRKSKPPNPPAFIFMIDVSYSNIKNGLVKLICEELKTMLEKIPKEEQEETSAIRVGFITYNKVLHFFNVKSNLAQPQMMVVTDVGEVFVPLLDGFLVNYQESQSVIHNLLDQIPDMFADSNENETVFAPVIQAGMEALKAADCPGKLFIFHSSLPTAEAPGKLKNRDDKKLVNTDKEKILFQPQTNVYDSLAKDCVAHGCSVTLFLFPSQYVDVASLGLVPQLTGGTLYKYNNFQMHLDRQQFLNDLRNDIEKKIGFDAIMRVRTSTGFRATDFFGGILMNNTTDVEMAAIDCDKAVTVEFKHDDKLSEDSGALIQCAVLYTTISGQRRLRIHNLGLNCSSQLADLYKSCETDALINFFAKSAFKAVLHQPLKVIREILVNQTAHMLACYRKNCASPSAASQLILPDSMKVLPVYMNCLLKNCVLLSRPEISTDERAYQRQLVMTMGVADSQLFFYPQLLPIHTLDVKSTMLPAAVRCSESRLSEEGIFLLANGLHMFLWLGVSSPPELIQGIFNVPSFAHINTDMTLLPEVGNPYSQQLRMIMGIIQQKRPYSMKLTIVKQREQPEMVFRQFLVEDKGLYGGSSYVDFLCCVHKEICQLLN

B1: membrin peptide 116TTIPMDE122 (peptide)
peptide: TTIPMDE
Regarding B1, the binding result is on record as “binds”.

B2: syntaxin 5 peptide 188DVAIDMMDP196 (peptide)
peptide: DVAIDMMDP
B2: the binding result is listed as “binds”.

The values are drawn from publication PMC2580787 (The EMBO journal, 2008).
